Measurements taken from the supplement of paper PMC9112550, “Optimization of the antimicrobial peptide Bac7 by deep mutational scanning” (BMC Biology, 2022).

System: Escherichia coli TOP10
Assay: shrunken log2 fold change of peptide-encoding DNA abundance (4.5 h post-induction vs induction); higher = less antimicrobial activity (less host growth inhibition)
Conditions: time post-induction: 4.5 h; library: site-saturation at positions 5, 18, 19, 20
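Note: peptides expressed intracellularly from a pBAD plasmid library in pooled LB shake-flask culture, induced with 0.3% L-arabinose, DNA abundance read by NGS, three biological replicates, DESeq2 with apeglm shrinkage.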

Sequence | shrunken log2 fold change
RRIRHRPPRLPRPRPRPVRYPRP | -0.551
RRIRGRPPRLPRPRPRPTERPRP | 0.675
RRIRLRPPRLPRPRPRPQNDPRP | -0.271
RRIRCRPPRLPRPRPRPRTNPRP | 0.0761
RRIRSRPPRLPRPRPRPYTGPRP | -0.125
RRIRARPPRLPRPRPRPEAGPRP | 1.5
RRIRERPPRLPRPRPRPYNMPRP | 0.0461
RRIRMRPPRLPRPRPRPQDTPRP | -0.0435
RRIRKRPPRLPRPRPRPHNLPRP | 0.0314
RRIRARPPRLPRPRPRPQMEPRP | -0.154
RRIRLRPPRLPRPRPRPCNAPRP | -0.129
RRIRPRPPRLPRPRPRPKLIPRP | -0.0783
RRIRQRPPRLPRPRPRPAPQPRP | 0.522
RRIRNRPPRLPRPRPRPKGPPRP | 0.0947
RRIRIRPPRLPRPRPRPMSCPRP | -0.141
RRIRSRPPRLPRPRPRPCEWPRP | 0.0266
RRIRARPPRLPRPRPRPQPPPRP | 0.715
RRIRQRPPRLPRPRPRPSSFPRP | -0.308
RRIRTRPPRLPRPRPRPKLVPRP | 0.016
RRIRHRPPRLPRPRPRPDKCPRP | -0.0295
RRIRKRPPRLPRPRPRPDLCPRP | 0.741
RRIRQRPPRLPRPRPRPKEQPRP | -0.0394
RRIRERPPRLPRPRPRPQECPRP | -0.399
RRIRRRPPRLPRPRPRPIIYPRP | -0.0798
RRIRHRPPRLPRPRPRPAYPPRP | -0.37

Sequence | shrunken log2 fold change
RRIRLRPPRLPRPRPRPYGMPRP | -0.0242
RRIRIRPPRLPRPRPRPTFGPRP | -0.28
RRIRSRPPRLPRPRPRPYAIPRP | -0.228
RRIRTRPPRLPRPRPRPVSHPRP | -0.265
RRIRMRPPRLPRPRPRPGIDPRP | 0.403
RRIRQRPPRLPRPRPRPSAYPRP | -0.247
RRIRRRPPRLPRPRPRPCHHPRP | -0.0387
RRIRERPPRLPRPRPRPDQIPRP | -0.084
RRIRPRPPRLPRPRPRPKARPRP | 0.691
RRIRMRPPRLPRPRPRPKWMPRP | 0.21
RRIRNRPPRLPRPRPRPFWAPRP | 0.0267
RRIRPRPPRLPRPRPRPARHPRP | 0.616
RRIRCRPPRLPRPRPRPLKCPRP | -0.228
RRIRERPPRLPRPRPRPANWPRP | 0.173
RRIRERPPRLPRPRPRPECNPRP | 0.0631
RRIRIRPPRLPRPRPRPFSHPRP | -0.177
RRIRERPPRLPRPRPRPPFWPRP | -0.0269
RRIRPRPPRLPRPRPRPPPHPRP | 0.657
RRIRERPPRLPRPRPRPWKQPRP | -0.0582
RRIRMRPPRLPRPRPRPNVSPRP | 0.141
RRIRMRPPRLPRPRPRPEPEPRP | 2.64
RRIRGRPPRLPRPRPRPKHDPRP | 0.466
RRIRCRPPRLPRPRPRPMPLPRP | -0.643
RRIRMRPPRLPRPRPRPFAPPRP | 0.633
RRIRPRPPRLPRPRPRPEKGPRP | 0.321

Sequence | shrunken log2 fold change
RRIRHRPPRLPRPRPRPIFVPRP | -0.358
RRIRGRPPRLPRPRPRPPWVPRP | 0.753
RRIRQRPPRLPRPRPRPMVEPRP | 0.168
RRIRNRPPRLPRPRPRPQFSPRP | -0.306
RRIRTRPPRLPRPRPRPAHKPRP | 0.0105
RRIRGRPPRLPRPRPRPSESPRP | 0.504
RRIRIRPPRLPRPRPRPVPIPRP | -0.403
RRIRGRPPRLPRPRPRPQRQPRP | 0.687
RRIRDRPPRLPRPRPRPVGDPRP | 0.47
RRIRYRPPRLPRPRPRPGAAPRP | 0.176
RRIRVRPPRLPRPRPRPSNWPRP | -0.331
RRIRNRPPRLPRPRPRPEIYPRP | -0.00989
RRIRWRPPRLPRPRPRPNWSPRP | -0.0695
RRIRGRPPRLPRPRPRPIGVPRP | -0.0542
RRIRWRPPRLPRPRPRPQVFPRP | -0.0323
RRIRERPPRLPRPRPRPALHPRP | 0.247
RRIRKRPPRLPRPRPRPAMYPRP | 0.256
RRIRFRPPRLPRPRPRPVKCPRP | -0.0573
RRIRHRPPRLPRPRPRPKYFPRP | -0.0202
RRIRPRPPRLPRPRPRPKGMPRP | 0.129
RRIRIRPPRLPRPRPRPIPEPRP | -0.158
RRIRIRPPRLPRPRPRPVKCPRP | 0.101
RRIRQRPPRLPRPRPRPYGGPRP | -0.29
RRIRQRPPRLPRPRPRPAAFPRP | 0.39
RRIRERPPRLPRPRPRPLITPRP | -0.412

Sequence | shrunken log2 fold change
RRIRFRPPRLPRPRPRPYTIPRP | 0.0439
RRIRERPPRLPRPRPRPLWVPRP | -0.109
RRIRQRPPRLPRPRPRPTSWPRP | -0.00172
RRIRPRPPRLPRPRPRPAGYPRP | -0.189
RRIRQRPPRLPRPRPRPVRGPRP | 1.97
RRIRERPPRLPRPRPRPGQCPRP | 0.0236
RRIRRRPPRLPRPRPRPVWGPRP | 0.359
RRIRIRPPRLPRPRPRPFWMPRP | -0.192
RRIRYRPPRLPRPRPRPWKKPRP | 0.00843
RRIRNRPPRLPRPRPRPECNPRP | -0.0153
RRIRHRPPRLPRPRPRPEELPRP | -0.00776
RRIRGRPPRLPRPRPRPCFLPRP | 0.0171
RRIRFRPPRLPRPRPRPHCAPRP | -0.17
RRIRNRPPRLPRPRPRPRCCPRP | -0.247
RRIRPRPPRLPRPRPRPYVMPRP | -0.706
RRIRCRPPRLPRPRPRPEIKPRP | 0.0171
RRIRARPPRLPRPRPRPQCAPRP | 0.216
RRIRDRPPRLPRPRPRPAGVPRP | 0.25
RRIRLRPPRLPRPRPRPLFAPRP | 0.233
RRIRERPPRLPRPRPRPLACPRP | -0.269
RRIRARPPRLPRPRPRPVRNPRP | 0.142
RRIRRRPPRLPRPRPRPKWVPRP | 0.242
RRIRSRPPRLPRPRPRPHFHPRP | -0.428
RRIRERPPRLPRPRPRPLPLPRP | -0.0754
RRIRKRPPRLPRPRPRPKLTPRP | 0.104

Sequence | shrunken log2 fold change
RRIRDRPPRLPRPRPRPYMHPRP | -0.275
RRIRHRPPRLPRPRPRPTDQPRP | -0.00155
RRIRVRPPRLPRPRPRPDGRPRP | 0.149
RRIRHRPPRLPRPRPRPYLFPRP | -0.523
RRIRCRPPRLPRPRPRPDPVPRP | 0.205
RRIRPRPPRLPRPRPRPPYNPRP | -0.495
RRIRPRPPRLPRPRPRPKEAPRP | -0.0122
RRIRVRPPRLPRPRPRPYNWPRP | -0.603
RRIRQRPPRLPRPRPRPFIPPRP | -0.395
RRIRKRPPRLPRPRPRPFSIPRP | -0.0639
RRIRRRPPRLPRPRPRPMVPPRP | 0.135
RRIRMRPPRLPRPRPRPMKFPRP | 0.0534
RRIRTRPPRLPRPRPRPKMHPRP | -0.0762
RRIRWRPPRLPRPRPRPERHPRP | 0.277
RRIRARPPRLPRPRPRPAWKPRP | 0.398
RRIRCRPPRLPRPRPRPHLEPRP | 0.0414
RRIRRRPPRLPRPRPRPQERPRP | -0.0784
RRIRTRPPRLPRPRPRPLMKPRP | -0.26
RRIRKRPPRLPRPRPRPRCPPRP | 0.52
RRIRDRPPRLPRPRPRPLRIPRP | 0.168
RRIRQRPPRLPRPRPRPVYYPRP | 0.0771
RRIRNRPPRLPRPRPRPKTSPRP | -0.0653
RRIRVRPPRLPRPRPRPHQQPRP | -0.0863
RRIRDRPPRLPRPRPRPKIQPRP | 0.0161
RRIRLRPPRLPRPRPRPKTVPRP | -0.0699

Sequence | shrunken log2 fold change
RRIRMRPPRLPRPRPRPIVLPRP | -0.0572
RRIRARPPRLPRPRPRPMSLPRP | -0.229
RRIRVRPPRLPRPRPRPGSEPRP | 0.168
RRIRYRPPRLPRPRPRPLIMPRP | -0.0566
RRIRPRPPRLPRPRPRPNLHPRP | -0.203
RRIRARPPRLPRPRPRPGRRPRP | 0.339
RRIRCRPPRLPRPRPRPWTFPRP | -0.126
RRIRYRPPRLPRPRPRPWYGPRP | -0.258
RRIRHRPPRLPRPRPRPTTLPRP | -0.301
RRIRTRPPRLPRPRPRPQCNPRP | -0.0399
RRIRQRPPRLPRPRPRPCWGPRP | 0.0281
RRIRVRPPRLPRPRPRPHAPPRP | 0.26
RRIRMRPPRLPRPRPRPYYQPRP | -0.856
RRIRARPPRLPRPRPRPRDAPRP | 0.91
RRIRWRPPRLPRPRPRPLVIPRP | -0.0698
RRIRWRPPRLPRPRPRPPVMPRP | 0.00935
RRIRWRPPRLPRPRPRPTHWPRP | 0.322
RRIRWRPPRLPRPRPRPCTEPRP | -0.0149
RRIRLRPPRLPRPRPRPGESPRP | 0.0313
RRIRKRPPRLPRPRPRPLPHPRP | -0.0107
RRIRQRPPRLPRPRPRPNWHPRP | 0.141
RRIRMRPPRLPRPRPRPTEDPRP | 1.9
RRIRSRPPRLPRPRPRPVHVPRP | -0.0394
RRIRDRPPRLPRPRPRPQHSPRP | -0.312
RRIRVRPPRLPRPRPRPDLWPRP | 0.115
